Assay results: paper PMC5465079
Each block holds one substance with its values, some of them ahead of it.

Tests used:
Experiment in all cases: SEC; purified enzymes that were not crosslinked, on Superdex 200; native mass estimated from the elution
[1] = target: ADHR (Lactobacillus kefiri DSM 20587)
[2] = target: SCR1 (Candida parapsilosis CCTCC M203011)
[3] = target: SCR3 (Candida parapsilosis CCTCC M203011)
[4] = target: wild-type (S)-carbonyl reductase II (Candida parapsilosis CCTCC M203011)

stoichiometry N [1]: 4
Substance: ADHR (enzyme)

Substance: SCR1 (enzyme)
stoichiometry N [2]: 4

Substance: SCR3 (enzyme)
stoichiometry N [3]: 4

stoichiometry N [4]: 4
Substance: wild-type (S)-carbonyl reductase II (enzyme)
